Data from publication PMC9198812, “Residues located in the primase domain of the bacteriophage T7 primase-helicase are essential for loading the hexameric complex onto DNA”.

Legend:
[1] = target: gp4-Y111A (bacteriophage T7, UniProt P03692 1-566, Y111A); experiment: double-filter binding; 1 mM [beta,gamma-CH2] dTTP, 10 mM MgCl2; Filter binding: 40 mM Tris-HCl pH 7.5, 50 mM potassium glutamate, 10 mM MgCl2, 5 mM DTT, 1 mM [beta,gamma-CH2] dTTP, 30 min, 25 C; mass photometry: 40 mM Tris-HCl pH 7.5, 150 mM KCl, 10 mM MgCl2, 25 C, 8.7 nM gp4 hexamer, 10 nM ssDNA; settings: protein: recombinant; tags: His (implied: pET28, TALON); chain copies: 6; label: 5'-32P; single strand
[2] = target: gp4 WT (T7 primase-helicase) (bacteriophage T7, UniProt P03692 1-566); experiment: as above; settings: protein: recombinant; tags: His (implied: pET28, TALON); chain copies: 6; label: 5'-32P; single strand

## ATGACCATGATTTCGACGTTTTTTTTTTTGGGGATCCTCTAACCTGCGCA (ssDNA) [50-nt ssDNA, 5'-32P]
[1]
  Kd: 93 nM
[2]
  Kd: 14 nM
